Data on two substances can be found in PMC3498381, “Isolated Toll-like Receptor Transmembrane Domains Are Capable of Oligomerization” (PLoS ONE, 2012).

A short description of series [1]: Sedimentation equilibrium analytical ultracentrifugation (SE-AUC). The class given is physicochemical. The note with it: for Oligomeric state (equilibrium model) / Average molecular weight obtained from the fit: SE-AUC; for Oligomeric state (equilibrium model): density matched 10 mM C14-betaine micelles, 100 mM HEPES pH 7.4, 25% D2O, 25 °C; for Average molecular weight obtained from the fit: peptide alone, global fit, single species model, 495 nm (FITC-TLR2) or 400 nm (coumarin-TLR6). As for the experimental part: Supplementary file pone.0048875.s003.tif: Figure S3 TLR2 Homotypic Sedimentation Equilibrium AUC. Sedimentation equilibrium profile at 495 nm of FITC-labeled TLR2 in density matched C14-betaine micelles (10 mM) in HEPES buffer (100 mM, pH 7.4). The partial specific volume and the solution density were fixed at 0.78730 mL/g and 1.031 g/mL, respectively. The data was analyzed using a global fitting routine. […] (TIF) Click here for additional data file.
Supplementary file pone.0048875.s004.tif: Figure S4 TLR6 Homotypic Sedimentation Equilibrium AUC. Sedimentation equilibrium profile at 400 nm of coumarin-labeled TLR6 in density matched C14-betaine micelles (10 mM) in HEPES buffer (100 mM, pH 7.4). The partial specific volume and the solution density were fixed at 0.78705 mL/g and 1.031 g/mL, respectively. The data was analyzed using a global fitting routine. […] (TIF) Click here for additional data file.
Supplementary file pone.0048875.s005.tif: Figure S5 TLR2-TLR6 Heterotypic Sedimentation Equilibrium AUC. Sedimentation equilibrium profile at 495 nm of FITC-labeled TLR2 in density matched C14-betaine micelles (10 mM) in HEPES buffer (100 mM, pH 7.4) in the presence of 2 equiv. of coumarin-labeled TLR6 peptide. The partial specific volume and the solution density were fixed at 0.78730 mL/g and 1.031 g/mL, respectively. The data was analyzed using a global fitting routine. […] (TIF) Click here for additional data file.
Equilibrium sedimentation was used primarily to determine the association state of TLR2, TLR6, and TLR2-TLR6. The experiments were performed in a Beckman XL-I analytical ultracentrifuge (Beckman Coulter) using six-channel carbon-epoxy composite centerpieces at 25 °C. Peptides were co-dissolved in trifluoroethanol (TFE) and C14-betaine. The organic solvent was removed using dry nitrogen gas and the resulting thin film of peptide/detergent mixture was dried overnight. The sample was then dissolved in buffer previously determined to match the density of the detergent component (100 mM HEPES buffer (pH= 7.4) buffer containing 25% D2O). The final concentration of C14-betaine is 10 mM in all of the samples. Peptide concentrations were determined by UV-Vis on the Beckman Coulter XL-I and dilutions were carried out to get concentrations in the desired absorbance ranges of the instrument (0.3-1) using the following extinction coefficients: 39,300 M^-1cm^-1 at 400 nm for coumarin labeled peptides and 69,000 M^-1cm^-1 at 495 nm for FITC labeled peptides. Data at different measurement speeds (30, 35 krpm) and different peptide:detergent ratios were analyzed by global curve-fitting of radial concentration gradients (measured using optical absorption) to the sedimentation equilibrium equation. Absorbance at both 400 nm and 495 nm was measured. Peptide partial specific volumes were calculated using previously described methods and residue molecular weights corrected for the 25% D2O exchange expected for the density-matched buffer. The solvent density (1.031 g/ml) was calculated using the program Sednterp. These coefficients were multiplied by the molar detergant ratio concentration units. […]
where E = baseline (zero concentration) absorbance, co is the peptide/detergent ratio of the peptide at ro, ε is the molar extinction coefficient, l is the optical path length, ω =2π*RPM, R= 8.3144 ×10^7 erg K^-1mol^-1 , T is temperature in K, M is the buoyant molecular weight of the peptide. […]

The target in series [2] is T1, 7-hydroxycoumarin labeled TLR6 TMD peptide (Homo sapiens, UniProt Q9Y2C9).
T1 construct: we synthesized peptides for the TLR1, TLR2, and TLR6 TMDs; made in house; host or cells: chemical solid-phase synthesis on Rink Amide resin (C-terminal amide)
The experiment in a line: FRET titration, TLR2-TLR6. The format is binding. The following applies: nM of acceptor labeled peptide; donor coumarin-TLR6 20 nM, fluorescein-TLR2 0-1500 nM, 1 mM C14-betaine, 100 mM HEPES pH 7.4; Hill equation; read-out: Dissociation constant, TLR2-TLR6 interaction. As for the experimental part: (§1) Using the same TLR1, TLR2, and TLR6 peptides, as described above, we were able to monitor the heterotypic interactions between TLR2-TLR1 and TLR2-TLR6 using a previously reported Förster resonance energy transfer (FRET) assay. […] The dissociation constant for the TLR2-TLR1 interaction was 230.8±20.0 nM of acceptor labeled peptide and for TLR2-TLR6 it was 286.5±14.8 nM of acceptor labeled peptide (Fig. 6C). […] SE-AUC was also used to investigate the oligomeric state of the TLR2-TLR6 heterotypic interaction.
(§2) Figure 6 TLR2-TLR1 and TLR2-TLR6 Heterotypic Interactions Measured by Förster Resonance Energy Transfer. Synthetic TMD peptides were co-incubated in micelles with the FRET donor concentration fixed to be 20 nM and the FRET acceptor concentration varied from 0–1500 nM. The donor was excited at 415 nm and emission was monitored from 440–600 nm. Only donor emission is shown as the excitation-emission separation led to a high background signal seen in the acceptor channel. (A) TLR2-TLR1 donor channel. (B) TLR2-TLR6 donor channel. (C) FRET efficiency based on decrease in donor signal at increasing acceptor concentrations.
(§3) FRET was used to directly probe the heterotypic association of the synthetic peptides. FRET experiments were performed on a Horiba Fluorolog-3 using a 0.3 cm path length cuvette. […]

For series [3], the target named is T2, 7-hydroxycoumarin labeled TLR1 TMD peptide (Homo sapiens, UniProt Q15399).
T2 construct: we synthesized peptides for the TLR1, TLR2, and TLR6 TMDs; made in house; host or cells: chemical solid-phase synthesis on Rink Amide resin (C-terminal amide)
T2 sequence (Q15399 581-601 limits assumed): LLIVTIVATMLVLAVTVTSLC
Briefly: FRET titration, TLR2-TLR1. The following applies: nM of acceptor labeled peptide; donor coumarin-TLR1 20 nM, fluorescein-TLR2 0-1500 nM, 1 mM C14-betaine, 100 mM HEPES pH 7.4; Hill equation; read-out: Dissociation constant, TLR2-TLR1 interaction. The class given is binding. As for the experimental part: as §1, §2, §3

[4] abbreviates: 10 mM C14-betaine, 100 mM HEPES pH 7.4.

No end group written: not given here.

In the case of “TLR6*: TLR6 TMD chimera with nonfunctional ToxR* domain (negative phenotype) (GNRASITLLIVTIGATMLVLAVTVTSLCIYLGSLIN; also: fused to non-functional ToxR* (S87H) and maltose binding protein, ends not given here)”, in series [1], the “Oligomeric state (equilibrium model)” value is “monomer-dimer equilibrium”. In addition, the “Average molecular weight obtained from the fit” value in series [1] (setting [4]) stood at 7680±866 Da.

With “TLR2*: TLR2 TMD chimera with nonfunctional ToxR* domain (negative phenotype) (GNRASALVSGMCCALFLLILLTGVLCGSLIN; cysteine pairing not given here; also: fused to non-functional ToxR* (S87H) and maltose binding protein, ends not given here)”, the “Average molecular weight obtained from the fit, in the presence of TLR6” value in series [1] (SE-AUC at 495 nm, FITC-labeled TLR2 with 2 equiv. of coumarin-labeled TLR6 peptide, 10 mM C14-betaine, 100 mM HEPES pH 7.4) is given as 12330±506 Da. Also, the “Oligomeric state (equilibrium model)” value in series [1] is “monomer-dimer-tetramer equilibrium”. The “Average molecular weight obtained from the fit” value in series [1] (setting [4]) came out at 14135±370 Da. The Kd was 286 ± 14.8 nM in series [2] and 231 ± 20 nM in series [3].
